Here are results for 1 protein from patent publication US12173037 (TRUSTEES OF COLUMBIA UNIVERSITY IN THE CITY OF NEW YORK, dated 2024).

The data set concerns the molecule itself. Kind of data set: Western blot, homodimer formation. A general note: In western blotting, separated proteins are transferred to a membrane and probed.

B1: K3 NGAL mutant protein (ligand)
chain: QDSTSDLIPAPPLSSVPLQQNFQDNQFQGKWYVVGLAGNAILREDEDPQKMYATIYELKEDKSYNVTSVLFRDDGCDYWIRTFVPGCQPGEFTLGNIQSYPGLTSYLVRVVSTNYNQFAMVFFKKVSQNQEYFKITLYGRTKELTSELQENFIRFSKSLGLPENNIVFPVPIDQCIDG
notes: Mutant of human NGAL; Expressed in bacteria like the wild type and labelled with Alexa 568 in the uptake assays; also called K3 Scn-Ngal; Mut1
As to B1, the binding result is “binds”.
